The results in this text go back to publication PMC9682730.

In one experiment the target is FLAG-CHMP2B^Intron5 (UniProt Q9UQN3). Kind of experiment: co-IP; anti-FLAG M2 affinity gel IP from lysates of transfected HEK293 cells, overnight at 4 °C, washed with 50 mM Tris-HCl pH 7.4, 150 mM NaCl, FLAG elution; western blot with spastin antibody; four independent experiments, normalised to the abundance of CHMP2B^WT versus CHMP2B^Intron5. (In general: A western blot detects proteins with antibodies after separation by electrophoresis.)

In experiment [1] the target is spastin (human (endogenous in HEK293)) (UniProt Q9UBP0). Kind of experiment: co-IP; reverse IP with spastin antibody from transfected cells, western blot with FLAG antibody; three independent experiments.

Sequence of FLAG-CHMP2B^Intron5 (Q9UQN3 whole entry): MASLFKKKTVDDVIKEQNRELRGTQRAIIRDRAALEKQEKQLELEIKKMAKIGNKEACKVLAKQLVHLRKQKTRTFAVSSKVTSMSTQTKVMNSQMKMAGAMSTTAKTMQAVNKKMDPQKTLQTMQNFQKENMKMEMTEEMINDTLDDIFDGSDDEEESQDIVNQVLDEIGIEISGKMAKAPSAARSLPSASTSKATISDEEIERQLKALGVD

With “spastin (from UniProt Q9UBP0 87-616) (natural protein)”, the fold of spastin pulled down against CHMP2B^WT in the experiment with FLAG-CHMP2B^Intron5 worked out at 11 times.
Substance “FLAG-CHMP2B^Intron5 (from UniProt Q9UQN3 1-213) (natural protein)” returned a fold of CHMP2B pulled down by spastin antibody against CHMP2B^WT in experiment [1] of 3.3 times.
